From the supplement of paper PMC9170038 come the findings set out here.

The subject of the data set is MS2 coat protein. As to the kind of experiment: apparent KD of MS2 coat protein; designed switch direction (-1 OFF switch, 1 ON switch): -1; higher = weaker reporter binding. Summed up: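 Designed RNA switches sharing common flanks were transcribed on Illumina chips by stalled E. coli RNA polymerase. They were titrated with SNAP-549-labelled MS2 coat protein, from 0.7 or 1.5 nM doubling to 3 µM, in Tris-HCl pH 7.5 buffer with KCl, MgCl2, BSA, DTT, tRNA and Tween-20. Titrations ran without input, with 200 uM small-molecule ligand, or with an oligonucleotide input. The apparent KD of each design is the median over its clusters, after curve-fitting of normalised cluster fluorescence.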

Setting [1] is: input ligand: microRNA oligo, concentration not stated.
Setting [2] is: Eterna round: R95, input ligand: microRNA oligo, concentration not stated.
Where [3] appears, read: Eterna round: R95, input ligand: FMN 200 uM.
The mark [4] stands for this setting: Eterna round: R95, input ligand: none.

“CUUGUUUAUGUAGGAUAUGCCUGGCGUGCCUUUGCAGAAGGACAUGAGGAUCACCCAUGUAACAUGAGGCUCACCCAUGUCGCA [salish99_ExNG1_r04_104] (Eterna round: R96, puzzle: Exclusion NG 1)”: the “apparent KD of MS2 coat protein” value worked out at 0.376 µM (input ligand: FMN 200 uM), 0.256 µM under setting [1] and 0.353 µM (input ligand: none).

Regarding “GCUGGGUCAGGAUAUACGAGAUCGAAAGAUCGAAGAUCCGUACAUGAGGAUCACCCAUGUAGAAGGGACUGGGC [ChP 11-04-2015 #7] (puzzle: Exclusion 2)”, the “apparent KD of MS2 coat protein” value under setting [2] amounted to 0.0195 µM.

As for “ACAUGAGGAUCACCCAUGUGAAAACAAUGGCUGACUUUGAGAUAGGAUAUAUGUGCAUAUCAAACAUAGAAGGGUCAUUACUGG [Deportation 90 - Jieux - Exclusion NG 3] (Eterna round: R96, puzzle: Exclusion NG 3)”, the “apparent KD of MS2 coat protein” value reads like this: (input ligand: FMN 200 uM) 0.0414 µM; under setting [1], 0.0259 µM; (input ligand: none) 0.0472 µM.

For “CAUUCGCAAGGAUAUUAUUGCAGUGACAUGAGGAUCACCCAUGUGUUCGUCAUGCAUCGAUGAGAAGGUGCAAGAC [Orater] (puzzle: Exclusion 5)”, the “apparent KD of MS2 coat protein” value stood at 0.0299 µM under setting [3], 0.0364 µM under setting [2] and 0.0412 µM under setting [4].

With “GCAAGCUUUUUCAAUAACAACAUGAGGAUCACCCAUGUUUAAGCUAUUACUUUUGGGCUCUUUAGUGCUAGUCUUAU [JR_STOV1_Sub037] (Eterna round: R97, puzzle: Sensor, turn-off variant 1)”, the “apparent KD of MS2 coat protein” value (input ligand: FMN 200 uM) was found to be 0.0191 µM and the “apparent KD of MS2 coat protein” value (input ligand: none) came out at 0.0177 µM.

As to “CUGCUCCGUGUAGGAUAUGCCCGCACCACCCGGGCAGAAGGACAUGAGGAUCACCCAUGUAUGUUAUUAUCACGUGUGGCGCGC [Design 39] (Eterna round: R96, puzzle: Exclusion NG 1)”, the “apparent KD of MS2 coat protein” value runs as follows: (input ligand: FMN 200 uM) 0.0237 µM; under setting [1], 0.0117 µM; (input ligand: none) 0.0164 µM.

Consider “UUUGUUUUGCAAGGAUAUGUUUAAUUUUAUUUUCCUUACACAUGAGGAUCACCCAUGUUAUACUUACAGAAGGUGCGUAAUUUG [Excl-NG2-LRO04] (Eterna round: R96, puzzle: Exclusion NG 2)”, for which, under setting [1], the “apparent KD of MS2 coat protein” value amounted to 0.165 µM.

With “AACCUACAUGAGGAUCACCCAUGUGAGGAUAUAUUGUUAUUUAUAUUAUUUUUUAGAGGUAGAAGGCGCGUGAU [JR_Exc1_Sub020] (Eterna round: R97, puzzle: Exclusion 1)”, the “apparent KD of MS2 coat protein” value runs as follows: (input ligand: FMN 200 uM) 0.0159 µM; (input ligand: none) 0.0173 µM.

As for “GGAAAGGUAGGAUAUACGAAGAAAAAGGGUAGAAGAAUAACACAUGAGGAUCACCCAUGUAGAAGGACCAAAGC [Mat - Exclusion 2 - Mod of my Tesla design - D14] (puzzle: Exclusion 2)”, the “apparent KD of MS2 coat protein” value is 0.0968 µM under setting [3], 0.0251 µM under setting [2] and 0.0258 µM under setting [4].

Consider “CCAUGGGAGCGAGGAUAUAGACCAUGGGAAGAUCUAGAAGGCGCUGACAUGAGGAUCACCCAUGUGUUCAUGAGGAGGUGGACA (Eterna round: R96, puzzle: Exclusion NG 1)”, for which the “apparent KD of MS2 coat protein” value is, setting by setting: (input ligand: FMN 200 uM) 0.0737 µM; under setting [1], 0.0744 µM; (input ligand: none) 0.0471 µM.

Take “GGAAAGGUAGGAUAUACGAAGAAAAAGGGUAGAAGAAGAACACAUGAGGAUCACCCAUGUAGAAGGACCAAAGC [Mat - Exclusion 2 - Mod of my Tesla design - D15] (puzzle: Exclusion 2)”: the “apparent KD of MS2 coat protein” value reads like this: under setting [3], 0.0565 µM; under setting [2], 0.0209 µM; under setting [4], 0.0239 µM.

Regarding “GCAGCUAGUUCAGGAUAUCAGCACGAUUAGUGCUGAGAAGGGAACAUGAGGAUCACCCAUGUGAUCAAUGCUGCAAUUUUAAUU [ENG1/12-A1] (Eterna round: R96, puzzle: Exclusion NG 1)”, the “apparent KD of MS2 coat protein” value reads like this: (input ligand: FMN 200 uM) 0.481 µM; under setting [1], 0.235 µM; (input ligand: none) 0.597 µM.

“CCGCAAAAGCAGGAUAUCGUAUCGGAUACGAUACGAGAAGGGUUUACAUGAGGAUCACCCAUGUUCCUUAGCGG [Fiskers Ex 6 - 32] (puzzle: Exclusion 6)”: the “apparent KD of MS2 coat protein” value under setting [2] amounted to 0.0268 µM.

Turning to “GGUACUAACACGAAAGUGUUAGUACUAUAAGCUUGUGUUACAUGAGGAUCACCCAUGUCCUCAUAGGCUCGUCUUAU [JL-sv3-2.18 mat747 mod] (puzzle: Sensor v3, turn-off variant 2)”, the “apparent KD of MS2 coat protein” value under setting [3] came to 0.292 µM, the “apparent KD of MS2 coat protein” value under setting [2] was determined as 0.0299 µM and the “apparent KD of MS2 coat protein” value under setting [4] came to 0.252 µM.

With “CUAGAUCUUCGGAUCUAGUACAUGAGGAUCACCCAUGUGACGAGUUGAUCCUCAAACAAGCUUUUUGCUCGUCUUAU [Sensor v3 - Turn-off variant 1 - 17] (puzzle: Sensor v3, turn-off variant 1)”, the “apparent KD of MS2 coat protein” value runs as follows: under setting [3], 0.0199 µM; under setting [2], 0.016 µM; under setting [4], 0.0221 µM.
